Results: patent US10258642B2, “Dextran sulfate for use in mobilization of cells” (TX MEDIC AB, priority 2013, dated 2019)

Experiments:
CFU-GM = conditions: colonies with >50 cells; G-CSF 10 μg/kg daily for five days and/or dextran sulfate 15 mg/kg once on day 5 (Han 1998); cited from earlier work
peripheral blood cells = assay: combination with G-CSF, hematological analysis; type: in vivo, mice; conditions: G-CSF 2×2.5 μg/day s.c. for 2 days
Method: G-CSF (NEUPOGEN®, Amgen, Holland) was supplied as sterile isotonic aqueous solution at 0.3 mg/mL and was diluted in normal saline to a concentration of 50 μg/mL. G-CSF was administered at a dose of 2.5 μg as a single subcutaneous injection, morning and evening Day -2 and Day -1. Dextran sulfate of different average molecular weights were used:
Standard treatment of patients prior to apheresis is based on daily injections of G-CSF for up to one week. Clinically dextran sulfate could be used in combination with G-CSF. In a study in mice 2.5 μg/animal of G-CSF was administered twice daily (8 hrs apart) for 2 days (Broxmeyer 1999).

B1: G-CSF: granulocyte-colony stimulation factor (NEUPOGEN, Amgen) (protein, chains of the INN, looked up)
chain: MTPLGPASSLPQSFLLKCLEQVRKIQGDGAALQEKLCATYKLCHPEELVLLGHSLGIPWAPLSSCPSQALQLAGCLSQLHSGLFLYQGLLQALEGISPELGPTLDTLQLDVADFATTIWQQMEELGMAPALQPTQGAMPAFASAFQRRAGGVLVASHLQSFLEVSYRVLRHLAQP
CFU-GM level (CFU-GM): 17.1±1.9 colonies
number of WBC compared to normal (peripheral blood cells): increased the number of WBC
